{"source": "paper PMC8557155", "about": "(Annals of Nuclear Medicine, 2021)", "key": {"[1]": {"details": "in vivo; cited from earlier work", "source_text": "This study is the first clinical trial on ^177Lu-DOTATATE for unresectable NETs in Japan. At 29.6 GBq, the absorbed dose to the kidney and red bone marrow was 16.8 Gy and 0.722 Gy, respectively. These values were lower than the reported threshold dose for the kidney (23 Gy) and the red bone marrow (2 Gy). The calculated absorbed doses to the kidney, spleen, red bone marrow, and liver were 0.568, 0.559, 0.0244 and 0.247 mGy/MBq, respectively, in this study. We compared the calculated absorbed dose to each organ with previously published studies in Caucasian populations. […] In this study, the primary lesions were located in the pancreas, stomach, and rectum. Therefore, many patients underwent pancreatectomy and colectomy before enrollment in the study; diarrhea is likely to occur more in such patients compared to primary midgut cases because pancreatic enzyme deficiency o ..."}, "[2]": {"details": "in vivo; cited from earlier work", "source_text": "This study is the first clinical trial on ^177Lu-DOTATATE for unresectable NETs in Japan. At 29.6 GBq, the absorbed dose to the kidney and red bone marrow was 16.8 Gy and 0.722 Gy, respectively. These values were lower than the reported threshold dose for the kidney (23 Gy) and the red bone marrow (2 Gy). The calculated absorbed doses to the kidney, spleen, red bone marrow, and liver were 0.568, 0.559, 0.0244 and 0.247 mGy/MBq, respectively, in this study. We compared the calculated absorbed dose to each organ with previously published studies in Caucasian populations. In the prev ... || In this study, severe lymphopenia occurred in two (33.3%) cases, and other hematological toxicities were grade 1 or 2 leukocytopenia and thrombocytopenia. This finding was very similar to that reported in the Erasmus study. […] In the present study, lymphocyte, erythrocyte, and leukocyte counts gradua ...", "remark": "listed apart in the source"}, "[3]": {"design": "species or system human (Japanese patients)", "details": "in vivo"}, "[4]": {"design": "species or system human (Japanese patients)", "details": "in vivo", "method": "Image processing and radioactivity quantification were performed by a nuclear medicine expert at site, and dosimetry calculation was performed by the sponsor of the study. All images were taken using the Symbia T-16 SPECT/CT scanner (Siemens). The dual-headed gamma camera was equipped with a 0.952-cm (0.375-in)-thick NaI crystal and a medium-energy low penetration collimator. An energy window of ± 10% was applied around the one dominant gamma ray energies of ^177Lu (208 keV). The matrix size was 256 × 1024. […] Radioactivity quantification was performed on patient images, and the geometric mean was calculated. Regions of interests (ROIs) were drawn around the kidneys, liver, spleen, other organs, and whole body on the planar images. Tumor tissue within the organs was excluded. The absorbed dose to each organ was estimated using the OLINDA/EXM 1.0 (Vanderbilt University), a software based on the Medical Internal Radiation Dose algorithm, which is widely used for established beta and gamma emitting radionuclides. The biological effective dose (BED) for the kidneys were estimated using the SAS software, version 9.4 (SAS Institute).", "remark": "listed apart in the source"}, "[5]": {"details": "in vivo; cited from earlier work", "remark": "listed apart in the source"}}, "note": "Read-outs that look alike come from different tables or passages of the source.", "data": [{"smiles": "C[C@@H](O)[C@H](NC(=O)[C@@H]1CSSC[C@H](NC(=O)[C@@H](Cc2ccccc2)NC(=O)CN2CCN(CC(=O)O)CCN(CC(=O)O)CCN(CC(=O)O)CC2)C(=O)N[C@@H](Cc2ccc(O)cc2)C(=O)N[C@H](Cc2c[nH]c3ccccc23)C(=O)N[C@@H](CCCCN)C(=O)N[C@@H]([C@@H](C)O)C(=O)N1)C(=O)O", "note": "[177Lu-DOTATATE, ^177Lu-DOTA^0-Tyr^3-octreotate, metal not drawn]", "values": [{"measurement": "Diarrhea, frequency", "setting": "[1]", "value": 28.8, "unit": "%"}, {"measurement": "Severe renal toxicities, frequency", "setting": "[1]", "value": 0.9, "unit": "%"}, {"measurement": "Severe lymphopenia at the follow-up visit after 3 month final treatment", "setting": "[2]", "value": 25.8, "unit": "%"}, {"measurement": "Severe lymphopenia at the follow-up visit after 30 months final treatment", "setting": "[2]", "value": 5.6, "unit": "%"}, {"measurement": "Severe lymphopenia, frequency", "setting": "[2]", "value": 50.0, "unit": "%"}, {"measurement": "Severe renal toxicities, frequency", "setting": "[2]", "value": 1, "unit": "%"}, {"measurement": "Fraction of the injected activity retained in the blood at 20 min after the injection", "setting": "[3]", "value": 0.00351, "unit": "% dose/g"}, {"measurement": "Fraction of the injected activity retained in the blood at 4 h after the injection", "setting": "[3]", "value": 0.00077, "unit": "% dose/g"}, {"measurement": "Effective half-time, distribution phase", "setting": "[3]; iv", "value": "2.37 ± 0.30", "unit": "h"}, {"measurement": "Effective half-time, excretion phase", "setting": "[3]; iv", "value": "42.7 ± 2.44", "unit": "h"}, {"measurement": "BED for the kidneys for 7.4 GBq, max", "setting": "[4]", "value": 5.38, "unit": "Gy/7.4 GBq"}, {"measurement": "BED for the kidneys for 7.4 GBq, mean", "setting": "[4]", "value": 4.25, "unit": "Gy/7.4 GBq"}, {"measurement": "BED for the kidneys for 7.4 GBq, min", "setting": "[4]", "value": 3.04, "unit": "Gy/7.4 GBq"}, {"measurement": "BED for the kidneys for 29.6 GBq, max", "setting": "[4]", "value": 21.5, "unit": "Gy/29.6 GBq"}, {"measurement": "BED for the kidneys for 29.6 GBq, mean", "setting": "[4]", "value": 17.0, "unit": "Gy/29.6 GBq"}, {"measurement": "BED for the kidneys for 29.6 GBq, median", "setting": "[4]", "value": 17.2, "unit": "Gy/29.6 GBq"}, {"measurement": "BED for the kidneys for 29.6 GBq, min", "setting": "[4]", "value": 12.2, "unit": "Gy/29.6 GBq"}, {"measurement": "BED for the kidneys, max", "setting": "[4]", "value": 0.727, "unit": "mGy/MBq"}, {"measurement": "BED for the kidneys, mean", "setting": "[4]", "value": 0.574, "unit": "mGy/MBq"}, {"measurement": "BED for the kidneys, median", "setting": "[4]", "value": 0.580, "unit": "mGy/MBq"}, {"measurement": "BED for the kidneys, min", "setting": "[4]", "value": 0.411, "unit": "mGy/MBq"}, {"measurement": "Effective radioactivity in the kidney at 1 h", "setting": "[4]", "value": "2.39 ± 0.535", "unit": "%"}, {"measurement": "Effective radioactivity in the liver at 1 h", "setting": "[4]", "value": "4.97 ± 2.01", "unit": "%"}, {"measurement": "Effective radioactivity in the spleen at 1 h", "setting": "[4]", "value": "0.812 ± 0.405", "unit": "%"}, {"measurement": "Fraction of the effective radioactivity retained in the whole body at 1 h", "setting": "[4]", "value": "71.4 ± 4.9", "unit": "%"}, {"measurement": "Fraction of the effective radioactivity retained in the whole body at 4 h", "setting": "[4]", "value": "39.5 ± 5.7", "unit": "%"}, {"measurement": "Fraction of the effective radioactivity retained in the whole body at 24 h", "setting": "[4]", "value": "16.0 ± 3.5", "unit": "%"}, {"measurement": "Fraction of the effective radioactivity retained in the whole body at Day 6", "setting": "[4]", "value": "5.8 ± 1.3", "unit": "%"}, {"measurement": "Absorbed dose to the spleen", "setting": "[5]", "value": 0.645, "unit": "mGy/MBq"}]}]}
